Measurements from publication PMC6433865, “The cochaperone CHIP marks Hsp70- and Hsp90-bound substrates for degradation through a very flexible mechanism” (Scientific Reports, 2019).

Columns and labels:
[1] = target: T1, Hsp70 (human (by the printed Entrez Gene code), UniProt P0DMV8 1-641); experiment: cryo-EM structure; ternary complexes after GraFix, vitrified; Titan Krios 300 kV (Hsp70:p53-TMGST:CHIP, 15 Å) or Talos Arctica 200 kV (Hsp90:p53-TMGST:CHIP, 13 Å); atomic structures docked; conditions: both partners purified
T1 construct: Hsp70, Entrez Gene code 3303, cloned in pQE-30; Removal of the His tag is told only for CHIP, UbcH5a, Bag1s and p53DBD, not for Hsp70; source: E. coli, expressed at 16 °C overnight, purified (Ni-NTA, Superdex 200)
T1 sequence (P0DMV8 whole entry): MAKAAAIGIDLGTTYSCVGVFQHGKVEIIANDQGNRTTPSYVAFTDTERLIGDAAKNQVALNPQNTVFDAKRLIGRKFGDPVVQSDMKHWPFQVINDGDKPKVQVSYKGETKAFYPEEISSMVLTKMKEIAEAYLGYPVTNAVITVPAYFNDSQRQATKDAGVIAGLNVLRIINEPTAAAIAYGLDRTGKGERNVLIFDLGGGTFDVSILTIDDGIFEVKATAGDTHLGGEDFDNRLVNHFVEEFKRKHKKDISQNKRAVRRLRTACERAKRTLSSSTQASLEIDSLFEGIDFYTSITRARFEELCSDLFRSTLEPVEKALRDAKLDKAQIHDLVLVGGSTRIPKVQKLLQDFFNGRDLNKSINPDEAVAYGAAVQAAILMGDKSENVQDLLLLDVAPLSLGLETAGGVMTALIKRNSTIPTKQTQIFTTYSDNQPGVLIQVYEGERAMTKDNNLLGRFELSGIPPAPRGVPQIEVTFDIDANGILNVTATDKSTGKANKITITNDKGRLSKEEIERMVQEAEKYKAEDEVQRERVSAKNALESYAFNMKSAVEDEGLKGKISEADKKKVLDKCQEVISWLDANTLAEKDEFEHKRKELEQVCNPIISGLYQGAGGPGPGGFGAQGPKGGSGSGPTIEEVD

[2] = target: T2, Hsp90 (human, UniProt P07900 1-732); experiment: negative-stain electron microscopy, 3D reconstruction; complexes stabilised and isolated by GraFix (10-30% glycerol gradient, 0.15% glutaraldehyde), stained with 2% uranyl acetate, JEOL JEM1010 at 80 kV; atomic structures docked into 19-26 Å volumes; conditions: both partners purified
T2 construct: Homodimer; also called hHsp90; source: E. coli, induced at 30 °C (4 h), purified (Ni-NTA, Superdex 200)

- binding result [1]: binds
- binding result [2]: binds
B1: C terminus of Hsc70-interacting protein (CHIP) (enzyme, human, UniProt Q9UNE7 1-303, looked up)
chain: MKGKEEKEGGARLGAGGGSPEKSPSAQELKEQGNRLFVGRKYPEAAACYGRAITRNPLVAVYYTNRALCYLKMQQHEQALADCRRALELDGQSVKAHFFLGQCQLEMESYDEAIANLQRAYSLAKEQRLNFGDDIPSALRIAKKKRWNSIEERRIHQESELHSYLSRLIAAERERELEECQRNHEGDEDDSHVRAQQACIEAKHDKYMADMDELFSQVDEKRKKRDIPDYLCGKISFELMREPCITPSGITYDRKDIEEHLQRVGHFDPVTRSPLTQEQLIPNLAMKEVIDAFISENGWVEDY
notes: human CHIP (hCHIP), Entrez Gene code 10273, cloned in pPROEX HTa; Homodimer, seen as an asymmetric triangular dimer in all reconstructions; also called hCHIP; source: E. coli, induced at 30 °C (4 h), purified (Ni-NTA, TEV cleavage, second Ni-NTA, Superdex 200)
